From IntAct's records for PubMed 19172740

B1: tRNA N6-adenosine threonylcarbamoyltransferase (Saccharomyces cerevisiae), P36132 (parent)
chain: MVNLNTIPPKNGRDYYIALGLEGSANKLGVGIVKHPLLPKHANSDLSYDCEAEMLSNIRDTYVTPPGEGFLPRDTARHHRNWCIRLIKQALAEADIKSPTLDIDVICFTKGPGMGAPLHSVVIAARTCSLLWDVPLVGVNHCIGHIEMGREITKAQNPVVLYVSGGNTQVIAYSEKRYRIFGETLDIAIGNCLDRFARTLKIPNEPSPGYNIEQLAKKAPHKENLVELPYTVKGMDLSMSGILASIDLLAKDLFKGNKKNKILFDKTTGEQKVTVEDLCYSLQENLFAMLVEITERAMAHVNSNQVLIVGGVGCNVRLQEMMAQMCKDRANGQVHATDNRFCIDNGVMIAQAGLLEYRMGGIVKDFSETVVTQKFRTDEVYAAWRD
B2: EKC/KEOPS complex subunit BUD32 (Saccharomyces cerevisiae), P53323 (parent)
chain: MTQEFIDKVSSYLTPDVDIAPISQGAEAIVFTTTTHPYLPRAKDSHQKYIIKYRPPKRYRHPQIDQALTKHRTLNESRLLAKLYLIPGLCVPQLIACDPYNGFIWLEFLGEDLPGGHGFSNLKNFLWMHDQDPYSDLVATTLRKVGRQIGLLHWNDYCHGDLTSSNIVLVRDGARWTPHLIDFGLGSVSNLVEDKGVDLYVLERAILSTHSKHAEKYNAWIMEGFEEVYREQGAKGAKKLKEVTKRFEEVRLRGRKRSMLG
partner: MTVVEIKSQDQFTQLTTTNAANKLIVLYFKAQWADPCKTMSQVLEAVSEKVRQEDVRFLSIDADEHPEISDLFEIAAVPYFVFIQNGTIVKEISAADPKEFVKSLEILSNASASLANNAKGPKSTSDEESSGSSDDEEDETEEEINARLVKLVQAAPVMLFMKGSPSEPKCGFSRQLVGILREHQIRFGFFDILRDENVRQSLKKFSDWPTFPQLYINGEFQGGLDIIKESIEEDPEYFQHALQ
B3: EKC/KEOPS complex subunit BUD32 (Saccharomyces cerevisiae), P53323 (parent)
chain: B2 chain
partner: B1 chain

Variants of: B1
Details: with bud32_yeast BUD32, P53323

Row | Variant | effect of a mutation on the interaction
1 | E295R | disrupting interaction
2 | E292R | disrupting interaction

Variants of: B1
Details: with bud32_yeast BUD32, P53323
Remark: another data set of the same source

Row | Variant | effect of a mutation on the interaction
3 | D236R | decreasing interaction

Variants of: B2
Details: with glrx4_yeast GRX4, P32642

Row | Variant | effect of a mutation on the interaction
4 | D161A | disrupting interaction

Variants of: B3
Details: with kae1_yeast KAE1, P36132

Row | Variant | effect of a mutation on the interaction
5 | R72E | decreasing interaction

Variants of: B3
Details: with kae1_yeast KAE1, P36132
Remark: another data set of the same source

Row | Variant | effect of a mutation on the interaction
6 | R60E | disrupting interaction

Variants of: B3
Details: with kae1_yeast KAE1, P36132
Remark: another data set of the same source

Row | Variant | effect of a mutation on the interaction
7 | K57E | disrupting interaction

Variants of: B3
Details: with kae1_yeast KAE1, P36132
Remark: another data set of the same source

Row | Variant | effect of a mutation on the interaction
8 | Y59E | disrupting interaction
